Laboratory results from patent US20110301098A1, “TREATMENT FOR INTIMAL HYPERPLASIA AND RELATED CONDITIONS” (priority 2006, published 2011).
Read-outs that look alike come from different tables or passages of the source. Positions of bridges follow the written chain, without caps; N, C: chain ends. Non-standard residues stand in square brackets, D forms with d. Residues, ends and D or L forms follow the SMILES beside them. *: point of attachment. Hydrocinnamoyl = O=C(CCc1ccccc1)*; dCha = N[C@H](CC1CCCCC1)C(=O)O; Orn = NCCC[C@H](N)C(=O)O

Columns and labels:
PDGF receptor = conditions: pretreatment of the vein grafts; cited from earlier work
C5a receptor [1] = biological target: T1, C5a receptor (Mus musculus, UniProt P30993); conditions: in vivo
T1 sequence (P30993 1-351): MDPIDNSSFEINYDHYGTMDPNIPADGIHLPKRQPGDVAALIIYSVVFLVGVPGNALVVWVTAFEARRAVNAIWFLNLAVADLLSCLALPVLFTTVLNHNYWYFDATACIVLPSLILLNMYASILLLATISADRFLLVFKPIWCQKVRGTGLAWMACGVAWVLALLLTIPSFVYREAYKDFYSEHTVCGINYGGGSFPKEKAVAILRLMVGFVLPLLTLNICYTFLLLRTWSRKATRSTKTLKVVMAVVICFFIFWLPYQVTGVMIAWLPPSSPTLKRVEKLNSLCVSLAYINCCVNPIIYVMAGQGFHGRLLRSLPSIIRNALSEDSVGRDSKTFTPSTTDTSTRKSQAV
Procedure: (§1) Male ApoE^−/− mice, aged between 12 and 16 weeks, were used for all experiments. Mice were fed a standard chow diet, and received water and food ad libitum. Before surgery, mice were anesthetized by an intra-peritoneal injection with Midazolam (5 mg/kg, Roche), Medetomidine (0.5 mg/kg, Orion) and Fentanyl (0.05 mg/kg, Janssen). Cholesterol levels in serum were determined at the time of sacrifice.
(§2) Briefly, caval veins were harvested from genetically identical donor mice, and were preserved before implantation at 4° C. in 0.9% NaCl containing 100 U/ml of heparin. In the graft recipient, the right carotid artery was dissected and cut in the middle. A polyethylene cuff was placed at both ends of the artery. The artery was everted around the cuff and ligated with a silk 8.0 suture. The caval vein was sleeved over the two cuffs and ligated. Successful engraftment was confirmed by the presence of pulsations and turbulent blood flow within the vein graft. The whole procedure usually takes about 30 minutes.
(§3) Cross-sections of vein grafts were stained with hematoxylin-phloxine-saffron, using conventional methods. The intimal hyperplasia surface of the thickened vein grafts was measured using image analysis software (Qwin, Leica). For each vein graft, six equally spaced cross-sections were used to determine the degree of vessel wall thickening.
(§4) To identify macrophages and macrophage-derived foam cells, immunohistochemistry was performed using AIA31240 primary antibodies against mouse macrophages (1:3000, Accurate Chemical). The contribution of macrophages and foam cells to the intimal hyperplasia was measured by computer-assisted analysis (Qwin, Leica) as the area stained with antibody AIA31240, and expressed as a percentage of the total intimal hyperplasia surface.
(§5) In order to inhibit C5a function, 21 mice were randomly divided in to three groups, and were treated with the cyclic peptide C5a antagonists AcF-[OP-(D-Cha)WR] (AcF) or hydrocinnamate-[OP-(D-Cha)WR] (HC). […]

C5a receptor [2] = biological target: T1, C5a receptor; experiment: C5a receptor antagonist treatment in the ApoE-/- mouse vein graft model
Procedure: as §1, §2, §3, §4, §5

vein grafts = experiment: Recombinant C5a applied to vein grafts in hypercholesterolaemic ApoE-/- mice; format: in vivo, mouse; conditions: for intimal hyperplasia surface: control 0.24±0.02; for macrophage/foam cell content of intimal hyperplasia: control 17±2%
Procedure: 153: 1301-1310. […] The whole procedure usually takes about 30 minutes.
To examine the involvement of C5a in the development of vein graft thickening, we applied recombinant C5a in two concentrations (0.5 μg and 5 μg, dissolved in 100 μl 20% Pluronic gel, n=7 per group,) directly to the vein graft at the time of surgery. In the control group 100 μl of 20% Pluronic gel without C5a was applied.
Twenty-one mice were randomly divided into three groups. In the treatment groups, either 0.5 μg or 5 μg of E. coli-derived recombinant mouse C5a (HyCult Biotechnology) was dissolved in 0.1 ml of 20% Pluronic gel, and applied around the venous interposition at the time of surgery. In the control group 0.1 ml of 20% Pluronic gel was applied without C5a. Mice were sacrificed after 28 days.

## Cc1ccc(C(=O)Nc2ccc(S(=O)(=O)O)c3cc(S(=O)(=O)O)cc(S(=O)(=O)O)c23)cc1NC(=O)c1cccc(NC(=O)Nc2cccc(C(=O)Nc3cc(C(=O)Nc4ccc(S(=O)(=O)O)c5cc(S(=O)(=O)O)cc(S(=O)(=O)O)c45)ccc3C)c2)c1 [Suramin]
PDGF receptor
  neointimal hyperplasia: significant reduction

## N=C(N)NCCC[C@@H]1NC(=O)[C@H](Cc2c[nH]c3ccccc23)NC(=O)[C@@H](CC2CCCCC2)NC(=O)[C@@H]2CCCN2C(=O)[C@@H](NC(=O)CCc2ccccc2)CCCNC1=O [HC, hydrocinnamate-[OP-(D-Cha)WR]] (Hydrocinnamoyl-[Orn]P[dCha]WR; lactam 1-C)
C5a receptor [1]
  body weight or serum cholesterol: No differences

## CC(=O)N[C@@H](Cc1ccccc1)C(=O)N[C@H]1CCCNC(=O)[C@H](CCCNC(=N)N)NC(=O)[C@H](Cc2c[nH]c3ccccc23)NC(=O)[C@@H](CC2CCCCC2)NC(=O)[C@@H]2CCCN2C1=O [AcF, AcF-[OP-(D-Cha)WR]]
C5a receptor [2]; 3 mg/kg/day s.c., 28 days after surgery
  decrease in vein graft thickening compared to control mice: 53%
C5a receptor [2]; between the different treatment groups
  body weight or serum cholesterol: No differences

B1: C5a: E. coli-derived recombinant mouse C5a (HyCult Biotechnology) (protein, UniProt P06684 679-755, looked up)
C5a anaphylatoxin: NLHLLRQKIEEQAAKYKHSVPKKCCYDGARVNFYETCEERVARVTIGPLCIRAFNECCTIANKIRKESPHKPVQLGR
modifications: C5a anaphylatoxin
Vein grafts; 0.5 μg C5a in 20% Pluronic gel applied to vein graft at surgery, 28 days
  intimal hyperplasia surface: 0.29±0.03 mm^2
Vein grafts; 0.5 μg C5a, 28 days
  macrophage/foam cell content of intimal hyperplasia: 22±3%
Vein grafts; 0.5 μg and 5 μg C5a vs control
  body weight and serum cholesterol: did not differ
Vein grafts; 0.5 μg and 5 μg C5a vs control, 28 days
  luminal area: No significant differences
Vein grafts; 5 μg C5a in 20% Pluronic gel applied to vein graft at surgery, 28 days
  intimal hyperplasia surface: 0.41±0.04 mm^2
Vein grafts; 5 μg C5a, 28 days
  macrophage/foam cell content of intimal hyperplasia: 33±2%
